Ends that are not written are not given here. * marks the point of attachment. C16 diacid = O=C(O)CCCCCCCCCCCCCCC(=O)*; Stearoyl = CCCCCCCCCCCCCCCCCC(=O)*; Palmitoyl = CCCCCCCCCCCCCCCC(=O)*; Lauroyl = CCCCCCCCCCCC(=O)*
T1: human GIP receptor (human, UniProt P48546 22-466)
T1 construct: whole, on cells; also called hGIPR
T1 sequence (looked up): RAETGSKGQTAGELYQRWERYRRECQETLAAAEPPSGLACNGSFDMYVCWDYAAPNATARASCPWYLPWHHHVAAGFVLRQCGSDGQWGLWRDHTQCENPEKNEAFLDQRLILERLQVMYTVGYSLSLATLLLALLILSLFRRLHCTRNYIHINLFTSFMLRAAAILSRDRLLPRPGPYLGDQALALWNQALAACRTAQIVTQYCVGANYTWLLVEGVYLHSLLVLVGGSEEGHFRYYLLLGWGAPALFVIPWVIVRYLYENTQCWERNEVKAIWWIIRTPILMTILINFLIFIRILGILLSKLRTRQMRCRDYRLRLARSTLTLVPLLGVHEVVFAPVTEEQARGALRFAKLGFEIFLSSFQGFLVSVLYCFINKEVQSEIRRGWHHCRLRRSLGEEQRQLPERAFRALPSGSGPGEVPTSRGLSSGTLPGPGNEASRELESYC


Molecular target: T1, human GIP receptor
Assay: 125I-hGIP competition binding, COS-7 cells expressing hGIPR;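 note: nonspecific binding taken as radioligand bound by untransfected cells, binding buffer with or without 2% HSA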

| Binder | IC50 | log IC50 |
| --- | --- | --- |
| Palmitoyl-EGTFISDYSIAMDKIHQQDFVNWLLAQK-NH2 [AT104 [hGIP(3-30)NH2-C16/3]] | 75 nM | -7.1 log M |
| EGTFISDYSIAMDK(Lauroyl)IHQQDFVNWLLAQK-NH2 [AT102 [hGIP(3-30)NH2-C12/16]] | 59.1 nM | -7.2 log M |
| EGTFISDYSIAMDRIK(Palmitoyl)QQDFVNWLLAQR-NH2 (N-terminus assumed; SMILES CCCCCCCCCCCCCCCC(=O)NCCCC[C@H](NC(=O)[C@@H](NC(=O)[C@H](CCCNC(=N)N)NC(=O)[C@H](CC(=O)O)NC(=O)[C@H](CCSC)NC(=O)[C@H](C)NC(=O)[C@@H](NC(=O)[C@H](CO)NC(=O)[C@H](Cc1ccc(O)cc1)NC(=O)[C@H](CC(=O)O)NC(=O)[C@H](CO)NC(=O)[C@@H](NC(=O)[C@H](Cc1ccccc1)NC(=O)[C@@H](NC(=O)CNC(=O)[C@@H](N)CCC(=O)O)[C@@H](C)O)[C@@H](C)CC)[C@@H](C)CC)[C@@H](C)CC)C(=O)N[C@@H](CCC(N)=O)C(=O)N[C@@H](CCC(N)=O)C(=O)N[C@@H](CC(=O)O)C(=O)N[C@@H](Cc1ccccc1)C(=O)N[C@H](C(=O)N[C@@H](CC(N)=O)C(=O)N[C@@H](Cc1c[nH]c2ccccc12)C(=O)N[C@@H](CC(C)C)C(=O)N[C@@H](CC(C)C)C(=O)N[C@@H](C)C(=O)N[C@@H](CCC(N)=O)C(=O)N[C@@H](CCCNC(=N)N)C(N)=O)C(C)C) [AT144 [hGIP(3-30)NH2[K16R; H18K; K30R]-C16/18]] | 297 nM | -6.53 log M |
| EGTFISDYSIAMDKIK(C16 diacid)QQDFVNWLLAQK-NH2 (N-terminus assumed; SMILES CC[C@H](C)[C@H](NC(=O)[C@H](CO)NC(=O)[C@H](Cc1ccc(O)cc1)NC(=O)[C@H](CC(=O)O)NC(=O)[C@H](CO)NC(=O)[C@@H](NC(=O)[C@H](Cc1ccccc1)NC(=O)[C@@H](NC(=O)CNC(=O)[C@@H](N)CCC(=O)O)[C@@H](C)O)[C@@H](C)CC)C(=O)N[C@@H](C)C(=O)N[C@@H](CCSC)C(=O)N[C@@H](CC(=O)O)C(=O)N[C@@H](CCCCN)C(=O)N[C@H](C(=O)N[C@@H](CCCCNC(=O)CCCCCCCCCCCCCCC(=O)O)C(=O)N[C@@H](CCC(N)=O)C(=O)N[C@@H](CCC(N)=O)C(=O)N[C@@H](CC(=O)O)C(=O)N[C@@H](Cc1ccccc1)C(=O)N[C@H](C(=O)N[C@@H](CC(N)=O)C(=O)N[C@@H](Cc1c[nH]c2ccccc12)C(=O)N[C@@H](CC(C)C)C(=O)N[C@@H](CC(C)C)C(=O)N[C@@H](C)C(=O)N[C@@H](CCC(N)=O)C(=O)N[C@@H](CCCCN)C(N)=O)C(C)C)[C@@H](C)CC) [AT158 [hGIP(3-30)NH2[H18K]-C16diacid/18]] | 8.2 nM |  |
| EGTFISDYSIAMDRIK(C16 diacid)QQDFVNWLLAQR-NH2 (N-terminus assumed; SMILES CC[C@H](C)[C@H](NC(=O)[C@H](CO)NC(=O)[C@H](Cc1ccc(O)cc1)NC(=O)[C@H](CC(=O)O)NC(=O)[C@H](CO)NC(=O)[C@@H](NC(=O)[C@H](Cc1ccccc1)NC(=O)[C@@H](NC(=O)CNC(=O)[C@@H](N)CCC(=O)O)[C@@H](C)O)[C@@H](C)CC)C(=O)N[C@@H](C)C(=O)N[C@@H](CCSC)C(=O)N[C@@H](CC(=O)O)C(=O)N[C@@H](CCCNC(=N)N)C(=O)N[C@H](C(=O)N[C@@H](CCCCNC(=O)CCCCCCCCCCCCCCC(=O)O)C(=O)N[C@@H](CCC(N)=O)C(=O)N[C@@H](CCC(N)=O)C(=O)N[C@@H](CC(=O)O)C(=O)N[C@@H](Cc1ccccc1)C(=O)N[C@H](C(=O)N[C@@H](CC(N)=O)C(=O)N[C@@H](Cc1c[nH]c2ccccc12)C(=O)N[C@@H](CC(C)C)C(=O)N[C@@H](CC(C)C)C(=O)N[C@@H](C)C(=O)N[C@@H](CCC(N)=O)C(=O)N[C@@H](CCCNC(=N)N)C(N)=O)C(C)C)[C@@H](C)CC) [AT159 [hGIP(3-30)NH2[K16R; H18K; K30R]-C16diacid/18]] | 18 nM |  |
| EGTFISDYSIAMDK(Palmitoyl)IKQQDFVNWLLAQK-NH2 (N-terminus assumed; SMILES CCCCCCCCCCCCCCCC(=O)NCCCC[C@H](NC(=O)[C@H](CC(=O)O)NC(=O)[C@H](CCSC)NC(=O)[C@H](C)NC(=O)[C@@H](NC(=O)[C@H](CO)NC(=O)[C@H](Cc1ccc(O)cc1)NC(=O)[C@H](CC(=O)O)NC(=O)[C@H](CO)NC(=O)[C@@H](NC(=O)[C@H](Cc1ccccc1)NC(=O)[C@@H](NC(=O)CNC(=O)[C@@H](N)CCC(=O)O)[C@@H](C)O)[C@@H](C)CC)[C@@H](C)CC)C(=O)N[C@H](C(=O)N[C@@H](CCCCN)C(=O)N[C@@H](CCC(N)=O)C(=O)N[C@@H](CCC(N)=O)C(=O)N[C@@H](CC(=O)O)C(=O)N[C@@H](Cc1ccccc1)C(=O)N[C@H](C(=O)N[C@@H](CC(N)=O)C(=O)N[C@@H](Cc1c[nH]c2ccccc12)C(=O)N[C@@H](CC(C)C)C(=O)N[C@@H](CC(C)C)C(=O)N[C@@H](C)C(=O)N[C@@H](CCC(N)=O)C(=O)N[C@@H](CCCCN)C(N)=O)C(C)C)[C@@H](C)CC) [AT163 [hGIP(3-30)NH2[H18K]-C16/16]] | 205 nM |  |
| EGTFISDYSIAMDK(Lauroyl)IRQQDFVNWLLAQR-NH2 (N-terminus assumed; SMILES CCCCCCCCCCCC(=O)NCCCC[C@H](NC(=O)[C@H](CC(=O)O)NC(=O)[C@H](CCSC)NC(=O)[C@H](C)NC(=O)[C@@H](NC(=O)[C@H](CO)NC(=O)[C@H](Cc1ccc(O)cc1)NC(=O)[C@H](CC(=O)O)NC(=O)[C@H](CO)NC(=O)[C@@H](NC(=O)[C@H](Cc1ccccc1)NC(=O)[C@@H](NC(=O)CNC(=O)[C@@H](N)CCC(=O)O)[C@@H](C)O)[C@@H](C)CC)[C@@H](C)CC)C(=O)N[C@H](C(=O)N[C@@H](CCCNC(=N)N)C(=O)N[C@@H](CCC(N)=O)C(=O)N[C@@H](CCC(N)=O)C(=O)N[C@@H](CC(=O)O)C(=O)N[C@@H](Cc1ccccc1)C(=O)N[C@H](C(=O)N[C@@H](CC(N)=O)C(=O)N[C@@H](Cc1c[nH]c2ccccc12)C(=O)N[C@@H](CC(C)C)C(=O)N[C@@H](CC(C)C)C(=O)N[C@@H](C)C(=O)N[C@@H](CCC(N)=O)C(=O)N[C@@H](CCCNC(=N)N)C(N)=O)C(C)C)[C@@H](C)CC) [AT153 [hGIP(3-30)NH2[H18R; K30R]-C12/16]] | 316 nM | -7 log M |
| EGTFISDYSIAMDKIK(Stearoyl)QQDFVNWLLAQK-NH2 (N-terminus assumed; SMILES CCCCCCCCCCCCCCCCCC(=O)NCCCC[C@H](NC(=O)[C@@H](NC(=O)[C@H](CCCCN)NC(=O)[C@H](CC(=O)O)NC(=O)[C@H](CCSC)NC(=O)[C@H](C)NC(=O)[C@@H](NC(=O)[C@H](CO)NC(=O)[C@H](Cc1ccc(O)cc1)NC(=O)[C@H](CC(=O)O)NC(=O)[C@H](CO)NC(=O)[C@@H](NC(=O)[C@H](Cc1ccccc1)NC(=O)[C@@H](NC(=O)CNC(=O)[C@@H](N)CCC(=O)O)[C@@H](C)O)[C@@H](C)CC)[C@@H](C)CC)[C@@H](C)CC)C(=O)N[C@@H](CCC(N)=O)C(=O)N[C@@H](CCC(N)=O)C(=O)N[C@@H](CC(=O)O)C(=O)N[C@@H](Cc1ccccc1)C(=O)N[C@H](C(=O)N[C@@H](CC(N)=O)C(=O)N[C@@H](Cc1c[nH]c2ccccc12)C(=O)N[C@@H](CC(C)C)C(=O)N[C@@H](CC(C)C)C(=O)N[C@@H](C)C(=O)N[C@@H](CCC(N)=O)C(=O)N[C@@H](CCCCN)C(N)=O)C(C)C) [AT160 [hGIP(3-30)NH2[H18K]-C18/18]] | 49 nM |  |
| EGTFISDYSIAMDKIHQQDFVNWLLAQK(Lauroyl)-NH2 [AT103 [hGIP(3-30)NH2-C12/30]] | 4710 nM | -5.3 log M |

Source: patent US20200087373A1 (UNIVERSITY OF COPENHAGEN, published 2020)
